Experimental data reported in patent publication US8420051B2, “Muteins of hNGAL and related proteins with affinity for a given target” (Technische Universitaet Meunchen, priority 2008, dated 2013).
Like-named read-outs stand apart in the source and are kept apart here.

Key:
[1] = target: human neutrophil gelatinase-associated lipocalin (hNGAL, Lcn2, P80188), wild type (Homo sapiens, UniProt P80188); conditions: cited from earlier work
[2] = target: T1, hNGAL mutein C26, SEQ ID NO: 10 (Yd5 + L42P/P48L/Q49L/I55T/K75M) (Homo sapiens, UniProt P80188, C107S/D97E/I100T/I61A/I75T/K154S/K95M/L56R/L62P/L90R/P68L/Q48H/Q69L/R101M/S147Q/S88A/T156S/T165A/T74Q/V53Q/W99L/Y158L/Y72T); type: binding; conditions: read-out: Kg (from half-maximal free metal chelate concentration)
T1 construct: the mature hNGAL protein and the C-terminal Strep-tag II; OmpA signal peptide (N, cleaved yes); made in house; host or cells: E. coli BL21 or TG1-F- (periplasm), plasmid pNGAL15
T1 sequence (P80188 21-198 with the stated changes): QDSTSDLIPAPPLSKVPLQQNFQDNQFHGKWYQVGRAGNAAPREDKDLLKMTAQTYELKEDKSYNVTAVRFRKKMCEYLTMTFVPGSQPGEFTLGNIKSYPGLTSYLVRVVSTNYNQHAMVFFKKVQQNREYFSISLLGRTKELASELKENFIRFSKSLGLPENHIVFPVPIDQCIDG

[3] = target: T2, hNGAL mutein Tb7.N9.N34, SEQ ID NO: 7 (Tb7.N9 + S127Q) (Homo sapiens, UniProt P80188, C107S/I100T/I61A/K154S/L56R/L90R/Q48H/R101M/S147Q/S88A/T165A/T74Q/V53Q/W99L/Y158L/Y72T); assay: SPR (Biacore), immobilized Me•DTPA-RNase; type: binding
T2 construct: the mature hNGAL protein and the C-terminal Strep-tag II; Strep-tag II (C); OmpA signal peptide (N, cleaved yes); made in house; host or cells: E. coli BL21 or TG1-F- (periplasm), plasmid pNGAL15
T2 sequence (P80188 21-198 with the stated changes): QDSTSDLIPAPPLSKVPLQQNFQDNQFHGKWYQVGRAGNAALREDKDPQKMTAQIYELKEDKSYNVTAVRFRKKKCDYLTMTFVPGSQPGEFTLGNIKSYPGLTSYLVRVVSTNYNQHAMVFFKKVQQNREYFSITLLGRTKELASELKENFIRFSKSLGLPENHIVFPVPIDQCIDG
Procedure: (§1) Real time analysis of hNGAL variants was performed on a BIAcore X system (BIAcore, Uppsala, Sweden) using PBS/t (PBS containing 0.005% (v/v) Tween 20) as running buffer. 5 to 27 μg/ml solutions of the Me•DTPA-RNase conjugate in 10 mM Na-acetate, pH 5.0 were immobilized on a CM5 chip using standard amine coupling chemistry, resulting in a ligand density of 240 to 1800 resonance units (RU). The purified hNGAL variant was applied at a flow rate of 5 or 25 μl/min at concentrations of 0.5 up to 500 nM. The sensorgrams were corrected by subtraction of the corresponding signals measured for the control channel, which had been activated and blocked with ethanolamine. Kinetic data evaluation was performed by global fitting with BIAevaluation software V 3.0 (Karlsson et al. (1991) J. Immunol. Methods 145, 229-240). Alternatively, the plateau values at the end of the association phase (after 200 s) were plotted against the applied protein concentration and fitted as in the ELISA (see above) to determine the equilibrium dissociation constants (KO.
(§2) Finally, the hNGAL variants were analyzed by SPR using a Biacore CM-5 chip with the covalently attached Y-DTPA-RNaseA conjugate and applying the purified recombinant proteins (Table 3). […] The improved KD values result primarily from slower ligand dissociation.

[4] = target: T3, hNGAL mutein Tb7.N9, SEQ ID NO: 6 (Tb7 + A79L/I80T) (Homo sapiens, UniProt P80188, C107S/I100T/I61A/K154S/L56R/L90R/Q48H/R101M/S88A/T165A/T74Q/V53Q/W99L/Y158L/Y72T); assay: SPR (Biacore), immobilized Me•DTPA-RNase; type: binding
T3 construct: the mature hNGAL protein and the C-terminal Strep-tag II; OmpA signal peptide (N, cleaved yes); made in house; host or cells: E. coli BL21 or TG1-F- (periplasm), plasmid pNGAL15
T3 sequence (P80188 21-198 Q48H/V53Q/L56R/I61A/Y72T/T74Q/S88A/L90R/W99L/I100T/R101M/C107S/K154S/Y158L/T165A): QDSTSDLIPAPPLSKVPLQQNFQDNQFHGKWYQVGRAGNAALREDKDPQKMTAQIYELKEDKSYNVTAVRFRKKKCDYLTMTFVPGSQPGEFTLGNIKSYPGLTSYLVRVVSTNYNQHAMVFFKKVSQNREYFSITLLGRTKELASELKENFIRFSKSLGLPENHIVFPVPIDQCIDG
Procedure: as §1, §2

[5] = target: T4, hNGAL mutein Yd5, SEQ ID NO: 9 (Tb7.N9.N34 + D77E/T136S) (Homo sapiens, UniProt P80188, C107S/D97E/I100T/I61A/K154S/L56R/L90R/Q48H/R101M/S147Q/S88A/T156S/T165A/T74Q/V53Q/W99L/Y158L/Y72T); assay: SPR (Biacore), immobilized Me•DTPA-RNase; type: binding
T4 construct: the mature hNGAL protein and the C-terminal Strep-tag II; OmpA signal peptide (N, cleaved yes); made in house; host or cells: E. coli BL21 or TG1-F- (periplasm), plasmid pNGAL15
T4 sequence (P80188 21-198 with the stated changes): as the sequence (P80188 21-198 Q48H/V53Q/L56R/I61A/Y72T/T74Q/S88A/L90R/W99L/I100T/R101M/C107S/K154S/Y158L/T165A) above, with D77E, S127Q, T136S counted along it
Procedure: as §1, §2

[6] = target: T5, hNGAL mutein Tb7, SEQ ID NO: 2 (Gln28His, Val33Gln, Leu36Arg, Ile41Ala, Tyr52Thr, Thr54Gln, Ser68Ala, Leu70Arg, Trp79Ala, Arg81Met, Cys87Ser, Lys134Ser, Tyr138L (Homo sapiens, UniProt P80188, C107S/I61A/K154S/L56R/L90R/Q48H/R101M/S88A/T165A/T74Q/V53Q/W99A/Y158L/Y72T)); assay: SPR (Biacore), immobilized Me•DTPA-RNase; type: binding
T5 construct: the mature hNGAL protein and the C-terminal Strep-tag II; OmpA signal peptide (N, cleaved yes); made in house; host or cells: E. coli BL21 or TG1-F- (periplasm), plasmid pNGAL15
T5 sequence (P80188 21-198 Q48H/V53Q/L56R/I61A/Y72T/T74Q/S88A/L90R/W99A/R101M/C107S/K154S/Y158L/T165A): as the sequence (P80188 21-198 Q48H/V53Q/L56R/I61A/Y72T/T74Q/S88A/L90R/W99L/I100T/R101M/C107S/K154S/Y158L/T165A) above, with L79A, T80I counted along it
Procedure: as §1, §2

[7] = target: T6, hNGAL mutein Ya6, SEQ ID NO: 8 (Tb7.N9.N34 with Thr136Ser) (Homo sapiens, UniProt P80188, C107S/I100T/I61A/K154S/L56R/L90R/Q48H/R101M/S147Q/S88A/T156S/T165A/T74Q/V53Q/W99L/Y158L/Y72T); assay: SPR (Biacore), immobilized Me•DTPA-RNase; type: binding
T6 construct: the mature hNGAL protein and the C-terminal Strep-tag II; Strep-tag II (C); OmpA signal peptide (N, cleaved yes); made in house; host or cells: E. coli BL21 or TG1-F- (periplasm), plasmid pNGAL15
T6 sequence (P80188 21-198 with the stated changes): as the sequence (P80188 21-198 Q48H/V53Q/L56R/I61A/Y72T/T74Q/S88A/L90R/W99L/I100T/R101M/C107S/K154S/Y158L/T165A) above, with S127Q, T136S counted along it
Procedure: as §1, §2

[8] = target: T7, hNGAL mutein Tb7, SEQ ID NO: 2 (Homo sapiens, UniProt P80188, C107S/I61A/K154S/L56R/L90R/Q48H/R101M/S88A/T165A/T74Q/V53Q/W99A/Y158L/Y72T); assay: ELISA, captured hNGAL variant with Me•DTPA conjugate; type: binding; conditions: Tb•DTPA-RNase A conjugate, read-out: apparent affinity
T7 construct: the mature hNGAL protein and the C-terminal Strep-tag II; OmpA signal peptide (N, cleaved yes); made in house; host or cells: E. coli BL21 or TG1-F- (periplasm), plasmid pNGAL15
T7 sequence (P80188 21-198 Q48H/V53Q/L56R/I61A/Y72T/T74Q/S88A/L90R/W99A/R101M/C107S/K154S/Y158L/T165A): as the sequence (P80188 21-198 Q48H/V53Q/L56R/I61A/Y72T/T74Q/S88A/L90R/W99L/I100T/R101M/C107S/K154S/Y158L/T165A) above, with L79A, T80I counted along it

[9] = target: T8, human neutrophil gelatinase-associated lipocalin (hNGAL), wild type, SEQ ID NO: 1 (Homo sapiens, UniProt P80188); assay: as above; type: binding
T8 construct: the mature hNGAL protein and the C-terminal Strep-tag II; OmpA signal peptide (N, cleaved yes); made in house; host or cells: E. coli BL21 or TG1-F- (periplasm), plasmid pNGAL14
T8 sequence (P80188 21-198): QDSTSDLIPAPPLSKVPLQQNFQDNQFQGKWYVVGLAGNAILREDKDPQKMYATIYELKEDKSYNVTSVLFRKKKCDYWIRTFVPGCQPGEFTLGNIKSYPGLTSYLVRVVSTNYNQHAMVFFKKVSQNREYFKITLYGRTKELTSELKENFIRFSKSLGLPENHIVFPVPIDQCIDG

[10] = 5 μl/min, from the kinetic analysis, read-out: KD
[11] = equilibrium analysis, read-out: Kd/eq

Chain of human neutrophil gelatinase-associated lipocalin (hNGAL, Lcn2, P80188), wild type (P80188 21-198, one chain of several): as the sequence (P80188 21-198) above

O=C(N[C@H]1COC(=O)[C@@H](NC(=O)c2cccc(O)c2O)COC(=O)[C@@H](NC(=O)c2cccc(O)c2O)COC1=O)c1cccc(O)c1O.[Fe+3] [Fe^3+-enterobactin, enterobactin]
Kd ([1]; read-out: dissociation constant (KD)): 0.4 nM

O=C(CC(O)(CC(=O)NCCCCNCCCNC(=O)c1ccc(O)c(O)c1)C(=O)O)NCCCCNCCCNC(=O)c1ccc(O)c(O)c1 [petrobactin]
binding [1]: does not bind

Nc1ccc(C[C@H](CN(CC(=O)O)[C@H]2CCCC[C@@H]2N(CC(=O)O)CC(=O)O)N(CC(=O)O)CC(=O)O)cc1.[Tb+3] [Me•p-NH2-Bn-CHX-A″-DTPA (Tb^3+), [(R)-2-amino-3-(4-aminophenyl)propyl]-trans-(S,S)-cyclohexane-1,2-diamine-pentaacetic acid]
Kd [2]: 2.9 ± 0.17 nM

C[C@H]1OC(=O)[C@@H](NC(=O)CNC(=O)c2cccc(O)c2O)[C@@H](C)OC(=O)[C@@H](NC(=O)CNC(=O)c2cccc(O)c2O)[C@@H](C)OC(=O)[C@H]1NC(=O)CNC(=O)c1cccc(O)c1O [bacillibactin]
binding [1]: forms stable complexes

Nc1ccc(C[C@H](CN(CC(=O)O)[C@H]2CCCC[C@@H]2N(CC(=O)O)CC(=O)O)N(CC(=O)O)CC(=O)O)cc1.[In+3] [Me•p-NH2-Bn-CHX-A″-DTPA (In^3+), [(R)-2-amino-3-(4-aminophenyl)propyl]-trans-(S,S)-cyclohexane-1,2-diamine-pentaacetic acid]
Kd [2]: 44.7 ± 2.5 nM

Nc1ccc(C[C@H](CN(CC(=O)O)[C@H]2CCCC[C@@H]2N(CC(=O)O)CC(=O)O)N(CC(=O)O)CC(=O)O)cc1.[Gd+3] [Me•p-NH2-Bn-CHX-A″-DTPA (Gd^3+), [(R)-2-amino-3-(4-aminophenyl)propyl]-trans-(S,S)-cyclohexane-1,2-diamine-pentaacetic acid]
Kd [2]: 3.6 ± 0.24 nM

B1: Tb^3+•DTPA-RNase: p-SCN-Bn-CHX-A″-DTPA covalently coupled to bovine ribonuclease A (about 1:1), charged with Tb^3+ (conjugate, UniProt P61823 27-150, looked up)
Ribonuclease pancreatic: KETAAAKFERQHMDSSTSAASSSNYCNQMMKSRNLTKDRCKPVNTFVHESLADVQAVCSQKNVACKNGQTNCYQSYSTMSITDCRETGSSKYPNCAYKTTQANKHIIVACEGNPYVPVHFDASV
modifications: CHX-A''-DTPA chelate with Tb3+
koff ([3]; 5 μl/min): 0.0114 s⁻¹
kon ([3]; 5 μl/min): 746000 M⁻¹ s⁻¹
Kd [3, 10]: 15.3 nM
Kd [3, 11]: 21 ± 2.3 nM
koff ([4]; 5 μl/min): 0.0105 s⁻¹
kon ([4]; 5 μl/min): 689000 M⁻¹ s⁻¹
Kd [4, 10]: 15.2 nM
Kd [4, 11]: 25 ± 2.7 nM
koff ([5]; 5 μl/min): 0.00246 s⁻¹
kon ([5]; 5 μl/min): 1e+06 M⁻¹ s⁻¹
Kd [5, 10]: 2.34 nM
Kd [5, 11]: 3.8 ± 0.15 nM
koff ([6]; 5 μl/min): 0.0401 s⁻¹
kon ([6]; 5 μl/min): 535000 M⁻¹ s⁻¹
Kd [6, 10]: 74.9 nM
Kd ([6]; from concentration-dependent saturation values in an equilibrium analysis, read-out: Kd/eq): 50 ± 6.5 nM
koff ([7]; 5 μl/min): 0.00296 s⁻¹
Kd [7, 10]: 2.39 nM
Kd [7, 11]: 5 ± 0.22 nM
Kd [8]: 74.5 ± 7.8 nM
binding activity [9]: no measurable binding activity
